The source of these data is patent US9879094B2, “Nucleic acid molecules encoding for BACE1 antibodies” (Genentech, Inc., priority 2010, dated 2018).

This experiment has as its target BACE1 (Homo sapiens, UniProt P56817). Kind of experiment: HTRF BACE1 enzyme activity assay (long peptide Bi27). The experiment is classed as biochemical. The following applies: purified affinity matured Fabs. The protocol:
The HTRF assay was performed as follows. […] The proteolytic reaction mixture was incubated at ambient temperature for 75 minutes and was quenched by the addition of 5 μL HTRF detection mixture containing 2 nM Streptavidin-D2 and 150 nM of 6E10 anti-amyloid beta antibody (Covance, Emoryville, Calif.) labeled with Europium cryptate in detection buffer (200 mM Tris pH 8.0, 20 mM EDTA, 0.1% BSA, and 0.8M KF). The final reaction mixture was incubated at ambient temperature for 60 minutes and the TR-FRET signal was measured using an EnVision Multilabel Plate Reader™ (Perkin-Elmer) at an excitation wavelength of 320 nm and emission wavelengths of 615 and 665 nm. Reactions lacking BACE1 enzyme (0 BACE) and reactions containing lacking anti-BACE1 antibodies (PBS (100% BACE1 Activity) were used as controls.
Fab proteins of 6 clones were purified and subjected for HTRF enzyme activity assay, as described above.
The affinity matured YW412.8.31 anti-BACE1 antibody was tested in a HTRF assay as described in Example 1. […] Additionally, reactions using a short FRET peptide (Rh-[…]-quencher (SEQ ID NO:54), Invitrogen) were also performed identically to the HTRF reactions. The resulting fluorogenic products from the control reactions were measured as above, but at an excitation wavelength of 545 nm and an emission wavelength of 585 nm. Obtained data were analyzed using GraphPad Prism 5™ (LaJolla, Calif.).
(In general: TR-FRET usually uses a lanthanide donor and a delayed reading to cut background.)

BACE1, sequence (P56817 22-457): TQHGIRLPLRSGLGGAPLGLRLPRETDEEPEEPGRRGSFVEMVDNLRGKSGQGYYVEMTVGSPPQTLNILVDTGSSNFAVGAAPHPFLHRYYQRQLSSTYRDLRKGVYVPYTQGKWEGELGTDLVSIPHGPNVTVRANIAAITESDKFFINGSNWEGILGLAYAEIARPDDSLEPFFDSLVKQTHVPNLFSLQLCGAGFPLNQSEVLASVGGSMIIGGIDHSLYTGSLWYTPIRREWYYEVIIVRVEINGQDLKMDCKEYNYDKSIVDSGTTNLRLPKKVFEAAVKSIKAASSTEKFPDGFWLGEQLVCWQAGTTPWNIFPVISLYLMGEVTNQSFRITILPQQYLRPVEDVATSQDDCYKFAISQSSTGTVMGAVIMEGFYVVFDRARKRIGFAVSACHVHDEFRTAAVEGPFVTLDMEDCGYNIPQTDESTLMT

B1: LC4: affinity matured clone derived from Fab5 (antibody, V domains shown)
VL: DIQMTQSPSSLSASVGDRVTITCRASQSVSSAVAWYQQKPGKAPKLLIYSASSLYSGVPSRFSGSGSGTDFTLTISSLQPEDFATYYCQQYSYSLLTFGQGTKVEIK
VH: EISEVQLVESGGGLVQPGGSLRLSCAASGFNLSYSYIHWVRQAPGKGLEWVASIYSSYGSTYYADSVKGRFTISADTSKNTAYLQMNSLRAEDTAVYYCARSYHHSDKYYYAWSYALDYWGQGTLVTVSS
For B1, the “inhibition activity compared to parent Fab” value was “significant improved inhibition”.

B2: LC40 (antibody, V domains shown)
VL: DIQMTQSPSSLSASVGDRVTITCRASQYSYSYSVAWYQQKPGKAPKLLISYASYLYSGVPSRFSGSGSGTDFTLTISSLQPEDFATYYCQQYSYSYSPITFGQGTKVEIK
VH: EISEVQLVESGGGLVQPGGSLRLSCAASGFNVSSSSMHWVRQAPGKGLEWVASIYPYSSSTSYADSVKGRFTISADTSKNTAYLQMNSLRAEDTAVYYCARYSYYSYGIDYWGQGTLVTVSS
Regarding B2, the “inhibition activity compared to parent Fab” value is “lost its inhibition activity”.
